These are literature values, as cited in paper PMC4426669.

For the series, the target named is eIF2B1 (Homo sapiens) (UniProt Q14232).

Some results are limits rather than exact numbers.

In general, Kd refers to the free concentration of one partner at which half of the binding sites on the other are occupied at equilibrium, for simple one-to-one binding. eIF2B1 (from UniProt Q14232): the Kd was under 1 nM.
